Laboratory results published in patent US20140271646A1 (UNITED STATES OF AMERICA AS REPRESENTED BY THE SECRETARY …, published 2014).
Where a chain is given by its changes, count along the chain named.

Key:
human IGF-II [1] = target: T1, human IGF-II (human, UniProt P01344 25-91); assay: phage library panned on hIGF-II, semELISA screening
T1 construct: mature; It was biotinylated for the flow cytometry assays; also called hIGF-II; insulin-like growth factor II
Description: The PCR products were gel-purified, digested with SfiI, and gel-purified again. The purified fragments were then cloned into pComb3X linearized by SfiI. A phage library was prepared by electroporation of Escherichia coli (E. coli) strain TG1 electroporation-competent cells (Stratagene, La Jolla, Calif.) with desalted and concentrated ligation, as described previously (Chen et al., 2008, J Mol Biol 382:779-89).

human IGF-II [2] = target: T1, human IGF-II; assay: ELISA, eAd on hIGF-II
Description: (§1) ELISA was performed as described previously (Chen et al., 2008, supra). Bound Fabs and eAds were detected by HRP-conjugated mouse anti-FLAG tag antibody. The antibody-Fc fusion proteins binding to IGF-II directly coated on 96-well plates were detected by HRP-conjugated goat anti-human IgG (Fc-specific) antibody. […] The half-maximal binding (EC₅₀) was calculated by fitting the data to the Langmuir adsorption isotherm.

mouse IGF-II = target: T2, mouse IGF-II (mouse, UniProt P09535 25-91); assay: ELISA-based competition assay
T2 construct: also called mIGF-II
T2 sequence (P09535 25-91 limits assumed): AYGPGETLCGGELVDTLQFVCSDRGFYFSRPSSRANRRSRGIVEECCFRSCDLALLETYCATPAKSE

human IGF-II [3] = target: T1, human IGF-II; assay: ELISA, Fab on hIGF-II
human IGF-II [4] = target: T1, human IGF-II; assay: ELISA on hIGF-II
Description: as §1

human IGF-II [5] = target: T1, human IGF-II; assay: ELISA, hIGF-II coated on the plate
Description: The half-maximal binding (EC₅₀) was calculated by fitting the data to the Langmuir adsorption isotherm.
as §1

human IGF-II [6] = target: T1, human IGF-II; assay: SPR, Biacore X100, antibody amine-coupled to a CM5 chip, hIGF-II as analyte, monovalent binding model
Description: ELISA was performed by coating IGF-II on 96-well plates. Bound antibodies were detected by HRP-conjugated goat anti-human IgG (Fc-specific) antibody. SPR analysis was performed on Biacore X100 by according to the manufacturer's instructions.
The binding kinetics of the antibodies was assessed by SPR analysis on Biacore X100 (GE Healthcare) according to the manufacturer's instructions. Briefly, antibodies were diluted in sodium acetate (pH 5.0) and immobilized directly onto a CM5 sensor chip with standard amine coupling method. The reference cell was injected with N-hydroxysuccinimide/1-ethyl-3-(3-dimethyaminopropy) carbodiimide and ethanolamine without injection of IGF-II. IGF-II was diluted with running buffer HBS-EP (100 mM HEPES, pH 7.4, 1.5 M NaCl, 30 mM EDTA, 0.5% surfactant 20). […] The kinetic constants were calculated from the sensorgrams fitted with the monovalent binding model of the BiacoreX100 Evaluation software 2.0.

T1 sequence (P01344 25-91): as the sequence (P09535 25-91 limits assumed) above, with G3R, G5S, S22G, S32A, A35V, N36S counted along it

B1: eAd m630.9 (VHH)
VHH: QVQLVQSGGGLVQPGGSLRLSCAASSFDFDYYEMSWVRQAPGQRLEWVAYISKSGGTKMYADSVKGRFTISRDNSKNTLYLQMNTLRAEDTAMYYCAKDRATCSGGRCYSFYYGMDVWGQGTLVTVSS
notes: Mutant of m630 selected from the random mutagenesis library panned on hIGF-II; not shown: C-terminal hexahistidine tag, and a FLAG tag used for detection
binding result (human IGF-II [1]): binds

B2: eAd m630.3 (VHH)
VHH: B1 VHH with S104R
notes: not shown: C-terminal hexahistidine tag, and a FLAG tag used for detection
EC50 (human IGF-II [2]): 2 nM
fold lower EC50 than m630 (human IGF-II [2]): 25 fold

B3: eAd m630 (VHH)
VHH: B1 VHH with R107S
notes: Human engineered antibody domain (a single VH domain) expressed in E. coli HB2151; not shown: C-terminal hexahistidine tag, and a FLAG tag used for detection
EC50 (human IGF-II [2]): 50 nM
binding result (mouse IGF-II): binds

B4: eAd m630.4 (VHH)
VHH: B1 VHH with D30G
notes: as for B1
binding result (human IGF-II [1]): binds

B5: eAd m630.1 (VHH)
VHH: B1 VHH with K76R, S104R, R107S, Y113H
notes: as for B1
binding result (human IGF-II [1]): binds

B6: Fab m610.27 (Fab, V domains shown)
VH: QVQLVQSGAEVKKPGASVKVSCKASGYTFTSYYMHWVRQAPGQGLEWMGIINPSGGSTSYAQKFQGRVTMTRDTSTSTVYMELSRLRSDDTAVYYCARDVQWLAYGMDVWGQGTTVTVSS
VL: DIQMTQSPSSLSASVGDRVTITCRASQSISSYLNWYQQKPGRAPDLLINAASSLQSGVPSRFSGSGSGTDFTLTISSLQPEDFATYFCQQSYSLPFTFGGGTKVEIKG
notes: Human Fab expressed in E. coli HB2151; also called m610.27 in Fab format
EC50 (human IGF-II [3]): 5 nM

B7: m610 (Fab, V domains shown)
VH: B6 VH
VL: not shown
notes: also called Fab m610
EC50 (human IGF-II [4]): 20 nM
binding result (mouse IGF-II): binds

B8: m660 (bispecific antibody, human IgG1, kappa)
heavy: not shown
light: QVQLVQSGGGLVQPGGSLRLSCAASSFDFDYYEMSWVRQAPGQRLEWVAYISKSGGTKMYADSVKGRFTISRDNSKNTLYLQMNTLRAEDTAMYYCAKDRATCRGGRCYSFYYGMDVWGQGTLVTVSSGGGGSGGGGSGGGGSRTVAAPSVFIFPPSDEQLKSGTASVVCLLNNFYPREAKVQWKVDNALQSGNSQESVTEQDSKDSTYSLSSTLTLSKADYEKHKVYACEVTHQGLSSPVTKSFNRGEC
notes: Produced in 293 free style cells; also called bispecific antibody m660
fold lower EC50 than IgG1 m610.7 (human IGF-II [5]): 3 fold
Kd (human IGF-II [6]): 0.136 nM
